Changes are numbered by the printed parent chain. Numbers in names are those of the source. Where “and” joins values, the source holds several entries; their conditions need not be identical. Equal entries are not always repeated.
B1: C6.5C100S/C100eS (scFv)
scFv: QVQLLQSGAELKKPGESLKISCKGSGYSFTSYWIAWVRQMPGKGLEYMGLIYPGDSDTKYSPSFQGQVTISVDKSVSTAYLQWSSLKPSDSAVYFCARHDVGYSSSSNSAKWPEYFQHWGQGTLVTVSSGGGGSGGGGSGGGGSQSVLTQPPSVSAAPGQKVTISCSGSSSNIGNNYVSWYQQLPGTAPKLLIYGHTNRPAGVPDRFSGSKSGTSASLAISGFRSEDEADYYCAAWDDSLSGWVFGGGTKLTVLG
notes: C6.5 VH CDR3 scan mutant; Kabat numbering
B2: C6.5V97A (scFv)
scFv: B1 scFv with V101A, S104C, S109C
notes: as for B1
B3: C6.5Y99A (scFv)
scFv: B1 scFv with Y103A, S104C, S109C
notes: as for B1
B4: C6.5K100gA (scFv)
scFv: B1 scFv with S104C, S109C, K111A
notes: as for B1
B5: C6.5Q101A (scFv)
scFv: B1 scFv with S104C, S109C, Q117A
notes: as for B1
B6: C6.5D96A (scFv)
scFv: B1 scFv with D100A, S104C, S109C
notes: as for B1
B7: C6.5H102A (scFv)
scFv: B1 scFv with S104C, S109C, H118A
notes: as for B1
B8: C6.5S100aA (scFv)
scFv: B1 scFv with S104C, S105A, S109C
notes: as for B1
B9: C6.5F100lA (scFv)
scFv: B1 scFv with S104C, S109C, F116A
notes: C6.5 VH CDR3 scan mutant; Kabat numbering; also called F1001A
B10: C6.5N100dA (scFv)
scFv: B1 scFv with S104C, N108A, S109C
notes: as for B1
B11: C6.5S100cA (scFv)
scFv: B1 scFv with S104C, S107A, S109C
notes: as for B1
B12: C6.5S100bA (scFv)
scFv: B1 scFv with S104C, S106A, S109C
notes: as for B1
B13: C6.5P100iA (scFv)
scFv: B1 scFv with S104C, S109C, P113A
notes: as for B1
B14: C6MH3-B27 (scFv)
scFv: B1 scFv with S104C, S105K, S106N, N108R, S109C, A235S, D238Y, S239T
notes: C6ML3-9 sFv, VH CDR3 library B mutant
B15: C6MH3-B9 (scFv)
scFv: B1 scFv with S104C, S105K, S106T, S107A, N108A, S109C, A235S, D238Y, S239T
notes: as for B14
B16: C6MH3-B2 (scFv)
scFv: B1 scFv with S104C, S105T, S106D, S107P, N108R, S109C, A235S, D238Y, S239T
notes: as for B14
B17: C6MH3-B39 (scFv)
scFv: B1 scFv with S104C, S105T, S106D, S107P, N108T, S109C, A235S, D238Y, S239T
notes: as for B14
B18: C6MH3-B15 (scFv)
scFv: B1 scFv with S104C, S105E, N108R, S109C, A235S, D238Y, S239T
notes: as for B14
B19: C6MH3-B20 (scFv)
scFv: B1 scFv with S104C, S106P, S107A, N108R, S109C, A235S, D238Y, S239T
notes: as for B14
B20: C6MH3-B21 (scFv)
scFv: B1 scFv with S104C, S105T, S106T, S107P, N108L, S109C, A235S, D238Y, S239T
notes: as for B14
B21: C6MH3-D6 (scFv)
scFv: B1 scFv with S104C, S109C, Y115W, F116M, Q117Y, H118P, A235S, D238Y, S239T
notes: C6ML3-9 sFv, VH CDR3 library D mutant
B22: C6MH3-D3 (scFv)
scFv: B1 scFv with S104C, S109C, Y115W, F116L, Q117D, H118N, A235S, D238Y, S239T
notes: as for B21
B23: C6MH3-B41 (scFv)
scFv: B1 scFv with S104C, S105T, S106D, S107R, N108P, S109C, A235S, D238Y, S239T
notes: as for B14
B24: C6MH3-B5 (scFv)
scFv: B1 scFv with S104C, S105T, S106D, S107A, N108T, S109C, A235S, D238Y, S239T
notes: as for B14
B25: C6MH3-B25 (scFv)
scFv: B1 scFv with S104C, S105L, S106T, S107T, N108R, S109C, A235S, D238Y, S239T
notes: as for B14
B26: C6MH3-B11 (scFv)
scFv: B1 scFv with S104C, S106D, S107R, N108S, S109C, A235S, D238Y, S239T
notes: as for B14
B27: C6MH3-C3 (scFv)
scFv: B1 scFv with G15E, S104C, S109C, N198D, A235S, D238Y, S239T
B28: C6MH3-B48 (scFv)
scFv: B1 scFv with S104C, S105T, S106D, S107P, N108S, S109C, A235S, D238Y, S239T
notes: as for B14
B29: C6MH3-B16 (scFv)
scFv: B1 scFv with S104C, S105A, S106D, S107V, N108R, S109C, A235S, D238Y, S239T
notes: as for B14
B30: C6MH3-D5 (scFv)
scFv: B1 scFv with S104C, S109C, Y115W, F116M, H118M, A235S, D238Y, S239T
notes: as for B21
B31: C6MH3-D1 (scFv)
scFv: B1 scFv with S104C, S109C, Y115W, F116L, Q117H, H118V, A235S, D238Y, S239T
notes: as for B21
B32: C6-B1D6 (scFv)
scFv: QVQLLQSGAELKKPGESLKISCKGSGYSFTSYWIAWVRQMPGKGLEYMGLIYPGDSDTKYSPSFQGQVTISVDKSVSTAYLQWSSLKPSDSAVYFCARHDVGYCTDRTCAKWPEWMYPWGQGTLVTVSSGGGGSGGGGSGGGGSQSVLTQPPSVSAAPGQKVTISCSGSSSNIGNNYVSWYQQLPGTAPKLLIYGHTNRPAGVPDRFSGSKSGTSASLAISGFRSEDEADYYCASWDYTLSGWVFGGGTKLTVLG
notes: Combined B1 and D6 mutations on C6ML3-9
B33: C6-B47D6 (scFv)
scFv: B32 scFv with T108S
notes: Combined B47 and D6 mutations on C6ML3-9
B34: C6-B47D1 (scFv)
scFv: B32 scFv with T108S, M116L, Y117H, P118V
notes: Combined B47 and D1 mutations on C6ML3-9
B35: C6-B47D2 (scFv)
scFv: B32 scFv with T108S, M116L, Y117G, P118V
notes: Combined B47 and D2 mutations on C6ML3-9
B36: C6-B47D5 (scFv)
scFv: B32 scFv with T108S, Y117Q, P118M
notes: Combined B47 and D5 mutations on C6ML3-9
B37: C6-B47D3 (scFv)
scFv: B32 scFv with T108S, M116L, Y117D, P118N
notes: Combined B47 and D3 mutations on C6ML3-9

The binders below were run against T1, c-erbB-2 ECD with a Ser-Gly-His6 C-terminal fusion (UniProt P04626 23-652) (assay: SPR BIAcore).
T1 construct: extracellular domain; Expressed from CHO cells, IMAC purified; coupled to a CM5 chip, coated on plates, or biotinylated with NHS-LC-biotin; also called c-erbB-2 extracellular domain; biotinylated c-erbB-2 ECD

Binder	Kd	Kd (mutant)/Kd (C6.5)	koff	kon
B1	280 nM	17.5	0.138 s⁻¹	500000 M⁻¹ s⁻¹
B2	48 nM	3	0.015 s⁻¹	310000 M⁻¹ s⁻¹
B3	59 nM	3.7	0.053 s⁻¹	900000 M⁻¹ s⁻¹
B4	9.8 nM	0.6	0.0042 s⁻¹	430000 M⁻¹ s⁻¹
B5	8.2 nM	0.5	0.0098 s⁻¹	1.2e+06 M⁻¹ s⁻¹
B6	45 nM	2.8	0.01 s⁻¹	220000 M⁻¹ s⁻¹
B7	19 nM	1.2	0.011 s⁻¹	590000 M⁻¹ s⁻¹
B8	28 nM	1.8	0.013 s⁻¹	470000 M⁻¹ s⁻¹
B9	454 nM	28.4	0.05 s⁻¹	110000 M⁻¹ s⁻¹
B10	29 nM	1.8	0.012 s⁻¹	410000 M⁻¹ s⁻¹
B11	24 nM	1.5	0.011 s⁻¹	450000 M⁻¹ s⁻¹
B12	47 nM	2.9	0.016 s⁻¹	340000 M⁻¹ s⁻¹
B13	10 nM	0.6	0.011 s⁻¹	1.05e+06 M⁻¹ s⁻¹

Target: T1, c-erbB-2 ECD with a Ser-Gly-His6 …
Assay: SPR BIAcore
Remark: another data set of the same source
Procedure: (§1) All assays were performed in triplicate. Briefly, […] of radioiodinated sFv was added to 5×10^6 SK-OV cells in the presence of increasing concentrations of unlabeled sFv from the same preparation. After a 30 minute incubation at 20° C., the samples were washed with PBS at 4° C. and centrifuged at 500 g. The amount of labeled sFv bound to the cells was determined by counting the pellets in a gamma counter and the K_a, and K_d were calculated using the EBDA program (V 2.0, G. A. McPherson, 1983). The K_d of all the other isolated sFv were determined using surface plasmon resonance in a BIAcore (Pharmacia). In a BIAcore flow cell, approximately 1400 resonance units (RU) of c-erbB-2 ECD (25 μg/ml in 10 mM sodium acetate, pH 4.5) was coupled to a CM5 sensor chip (Johnsson et al. (1991), supra). Association and dissociation-rates were measured under continuous flow of […] using a concentration range from 50 to 800 nM. Rate constant $kon$ was determined from a plot of (1(dR/dt))/t vs concentration (Karlsson et al. (1991), supra). Rate constant $Hoff$ was determined from the dissociation part of the sensorgram at the highest concentration of sFv analyzed.
Dashes indicate sequence identity. Mutations arising from PCR error and located outside V_H CDR3 are listed under the heading other mutations. F = frequency of isolated scFv. *$koff$ determined from unpurified scFv samples. Underline indicates mutated residue.

Binder	Kd	koff
B14	0.47 nM	0.0004 s⁻¹
B15	0.87 nM	0.00033 s⁻¹
B16	0.31 nM and 0.58 nM	0.00031 s⁻¹ and 0.00032 s⁻¹
B17	0.32 nM	0.00019 s⁻¹
B18	0.77 nM	0.00029 s⁻¹
B19	0.87 nM	0.00016 s⁻¹
B20	0.73 nM	0.00024 s⁻¹
B21	0.35 nM	0.00018 s⁻¹
B22	0.27 nM	0.00025 s⁻¹
B23	0.53 nM	0.00027 s⁻¹
B24	0.34 nM	0.00023 s⁻¹
B25	0.36 nM	0.00019 s⁻¹
B26	0.22 nM	0.00023 s⁻¹
B27	0.65 nM	0.00032 s⁻¹
B28	0.23 nM	0.00013 s⁻¹
B29	0.31 nM	0.00028 s⁻¹
B30	0.38 nM	0.00021 s⁻¹
B31	0.31 nM	0.00011 s⁻¹

Target: T1, c-erbB-2 ECD with a Ser-Gly-His6 …
Assay: SPR BIAcore
Remark: another data set of the same source
Procedure: as §1
Mutants obtained by combining mutations of C6MH3-B1 or C6MH3-B47 with mutations from D library clones (D1, D2, D3, D5, D6). Rate constants $kon$ and $koff$ were measured by SPR in a BIAcore, and the K_d calculated.

Binder	Kd	Kd (C6.5)/Kd (mut)	Kd (parent)/Kd (mut)	koff	kon
B32	0.032 nM	500	3.8	1.3e-05 s⁻¹	410000 M⁻¹ s⁻¹
B33	0.051 nM	314	2.2	3e-05 s⁻¹	590000 M⁻¹ s⁻¹
B34	0.068 nM	235	1.6	4.8e-05 s⁻¹	710000 M⁻¹ s⁻¹
B35	0.044 nM	364	2.5	4.3e-05 s⁻¹	980000 M⁻¹ s⁻¹
B36	0.063 nM	254	1.7	3.9e-05 s⁻¹	620000 M⁻¹ s⁻¹
B37	0.048 nM	333	2.3	3.2e-05 s⁻¹	660000 M⁻¹ s⁻¹

— patent US6512097
